Measurements: patent publication US20210380687A1 (ALBERT EINSTEIN COLLEGE OF MEDICINE, published 2021)

T1: human CEACAM1 (as used in Surface Plasmon Resonance) (human)
T1 chain: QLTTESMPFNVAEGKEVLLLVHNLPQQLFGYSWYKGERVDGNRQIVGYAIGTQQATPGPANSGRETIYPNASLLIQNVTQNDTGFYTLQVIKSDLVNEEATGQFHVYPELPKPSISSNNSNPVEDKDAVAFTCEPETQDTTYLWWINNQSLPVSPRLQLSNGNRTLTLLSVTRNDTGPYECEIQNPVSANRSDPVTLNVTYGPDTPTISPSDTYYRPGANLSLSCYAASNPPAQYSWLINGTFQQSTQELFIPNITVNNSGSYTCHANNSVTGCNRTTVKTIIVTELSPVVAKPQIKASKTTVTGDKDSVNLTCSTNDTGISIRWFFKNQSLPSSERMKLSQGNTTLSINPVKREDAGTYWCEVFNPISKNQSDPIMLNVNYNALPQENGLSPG

B1: monoclonal antibody 38B5 (antibody, V domains shown)
VH: QIQLVQSGPELKKPGETVKISCKASGYIFRNYGMNWVKQAPGKGLKWMGWINTYTGEPTYADDFKGRFAFSLETSASTAYLQINNLKNEDMATYFCARRGWLLTGGAMDYWGQGTSVTVSQ
VL: DIQMTQSPSSLSASLGERVSLTCRASQDIGSSLNWLQQEPDGTIKRLIYATSSLDSGVPKRFSGSRSGSDYSLTISSLESEDFVDYYCLQYVSSPWTFGGGTKLEIKR
notes: also called mAb 38B5
B2: monoclonal antibody 36B11 (antibody, V domains shown)
VH: QIQLVQSGPDLKKPGETVKISCKASGYIFRNYGMNWVKQAPGKGLKWMGWINTYTGEPTYADDFKGRFAFSLETSASTAYLQINNLKNEDMATYFCARDCGTSHYYAMDYWGQGT
VL: DIQMTQTTSSLSASLGDRVTISCRASQDISNYLNWYQQKPDGTVKLLIYYTSRLHSGVPSRFSGSGSGTDYSLSISNLEQEDIATYFCQQGNTFPLTFGAGTKLDLKR
notes: the VH entry is cut short at its C-terminus; also called mAb 36B11
B3: monoclonal antibody 25C8 (antibody, V domains shown)
VH: QVQLQQSGAELVRPGTSVKVSCKASGYAFTIYLIEWVKQRPGQGLEWIGVINPGSGGTNYNEKFKGKATLTADKSSSTAFMQLSSLTSDDSAVYFCARSYYYGSFAMDYWGQGTSVTVSQ
VL: DVQMTQTISSLSASLGDRVTISCRASQDIGNYLNWYQQKPDGTVKLLIYYTSRLHSGVPSRFSGSGSGTDYSLTISNLEQEDIATYFCQQGNTLRTFGGGTKLEIKR
notes: also called mAb 25C8

Target: T1, human CEACAM1 (as used in Surface …)
Test: Surface Plasmon Resonance

Row | Kd | koff | kon | Binder
1 | 0.589 nM | 0.000482 s⁻¹ | 818000 M⁻¹ s⁻¹ | B1
2 | 1.42 nM | 0.000108 s⁻¹ | 76100 M⁻¹ s⁻¹ | B2
3 | 3.88 nM | 0.000193 s⁻¹ | 49600 M⁻¹ s⁻¹ | B3
